Experimental data reported in patent US20100260668A1 (published 2010).

Target: T1, CD40/FC (CD40 ECD/FC chimera-His tag) (UniProt P25942 21-193, limits assumed)
T1 construct: extracellular domain; Bought reagent
Assay: Direct Bind ELISA, antigen on plate; N-terminal VD

T1 sequence (P25942 21-193 limits assumed, change not shown): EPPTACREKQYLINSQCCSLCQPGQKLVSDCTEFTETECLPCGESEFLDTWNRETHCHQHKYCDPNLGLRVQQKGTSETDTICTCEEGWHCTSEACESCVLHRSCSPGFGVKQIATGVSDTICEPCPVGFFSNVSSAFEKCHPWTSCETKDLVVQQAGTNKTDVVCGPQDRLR

EC50: 0.82 nM
B1: DVD010 (CD-40 and CD-20 DVD-Ig) (bispecific antibody, IgG1)
VH: QVQLVESGGGVVQPGRSLRLSCAASGFTFSSYGMHWVRQAPGKGLEWVAVISYEESNRYHADSVKGRFTISRDNSKITLYLQMNSLRTEDTAVYYCARDGGIAAPGPDYWGQGTLVTVSSASTKGPQVQLQQPGAELVKPGASVKMSCKASGYTFTSYNMHWVKQTPGRGLEWIGAIYPGNGDTSYNQKFKGKATLTADKSSSTAYMQLSSLTSEDSAVYYCARSTYYGGDWYFNVWGAGTTVTVSA
VL: DIVMTQSPLSLTVTPGEPASISCRSSQSLLYSNGYNYLDWYLQKPGQSPQVLISLGSNRASGVPDRFSGSGSGTDFTLKISRVEAEDVGVYYCMQARQTPFTFGPGTKVDIRRTVAAPQIVLSQSPAILSPSPGEKVTMTCRASSSVSYIHWFQQKPGSSPKPWIYATSNLASGVPVRFSGSGSGTSYSLTISRVEAEDAATYYCQQWTSNPPTFGGGTKLEIKR
notes: Outer AB009, inner AB001; HC vector V1 (wild-type hIgG1 constant), LC vector V2 (kappa constant); also called DVD010H; DVD010L
